The values that follow come from patent CN106084046A (UNIV SUN YAT SEN, dated 2016).

In test [1] the target is CD3 on Jurkat靶标细胞 (human) (UniProt P07766). In words: flow cytometry, culture supernatant of the negative control sdAb on Jurkat cells (TG1 background supernatant: 132.03). A general note: A flow cytometer gives signals particle by particle.
Test [2] shares this target. Kind of test: flow cytometry, culture supernatant on Jurkat cells.
The target of test [3] is T1, CD3-His蛋白(MP-5) (human, UniProt P07766 23-126).
T1 construct: Immunogen and panning antigen; also called CD3蛋白; not shown: His tag
T1 sequence (P07766 23-126): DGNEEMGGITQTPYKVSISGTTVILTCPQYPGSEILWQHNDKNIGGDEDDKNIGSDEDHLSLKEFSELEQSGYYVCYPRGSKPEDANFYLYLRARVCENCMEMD
In words: BLI (Octet RED96) off-rate screen, sdAb-SASA from expression medium captured on BSA-coated biosensor, 100 nM CD3 in solution, 30°C, 1:1 Langmuir model. For orientation: BLI is a label-free optical method that tracks binding on a fibre tip over time.

In general, koff refers to the rate constant with which the complex falls apart. Higher therefore signals a short-lived complex.

As to NC-sdAb(相同形式的非相关性sdAb) (VHH), the MFI in test [1] was 115 MFI.

B1: 抗CD3单域抗体 A30249 (VHH)
VHH: QVKLEESGGGLVQAGGSLRVSCTASGRTFDTMGWFRQAPGKEREFVAAVRWSSGNTLYGNTVKGRFTISRDTATNTVYLQMSSLKHEDTAVYYCAARVGGRGAADHWGQGTQVTVSS
notes: Llama sdAb from a phage display library; Tested as sdAb-SASA protein in crude expression medium / culture supernatant, not purified; also called sdAb; sdAb-SASA; not shown: SASA fusion partner from the pFASEBA vector (sdAb-SASA protein in expression medium)
In turn, B1 gave an MFI in test [2] of 217 MFI. In test [3], this molecule displayed a koff of 4.92e-05 s⁻¹.
